Measurements from US20100041597A1 (published 2010).

T1: PKC-ε (endogenous, human cell extracts) (human, UniProt Q02156 1-737)
T1 construct: Two bands on the blot, said to be alternate splicing variants; also called PKC-epsilon; PKC-ε Band 1
T1 sequence (looked up): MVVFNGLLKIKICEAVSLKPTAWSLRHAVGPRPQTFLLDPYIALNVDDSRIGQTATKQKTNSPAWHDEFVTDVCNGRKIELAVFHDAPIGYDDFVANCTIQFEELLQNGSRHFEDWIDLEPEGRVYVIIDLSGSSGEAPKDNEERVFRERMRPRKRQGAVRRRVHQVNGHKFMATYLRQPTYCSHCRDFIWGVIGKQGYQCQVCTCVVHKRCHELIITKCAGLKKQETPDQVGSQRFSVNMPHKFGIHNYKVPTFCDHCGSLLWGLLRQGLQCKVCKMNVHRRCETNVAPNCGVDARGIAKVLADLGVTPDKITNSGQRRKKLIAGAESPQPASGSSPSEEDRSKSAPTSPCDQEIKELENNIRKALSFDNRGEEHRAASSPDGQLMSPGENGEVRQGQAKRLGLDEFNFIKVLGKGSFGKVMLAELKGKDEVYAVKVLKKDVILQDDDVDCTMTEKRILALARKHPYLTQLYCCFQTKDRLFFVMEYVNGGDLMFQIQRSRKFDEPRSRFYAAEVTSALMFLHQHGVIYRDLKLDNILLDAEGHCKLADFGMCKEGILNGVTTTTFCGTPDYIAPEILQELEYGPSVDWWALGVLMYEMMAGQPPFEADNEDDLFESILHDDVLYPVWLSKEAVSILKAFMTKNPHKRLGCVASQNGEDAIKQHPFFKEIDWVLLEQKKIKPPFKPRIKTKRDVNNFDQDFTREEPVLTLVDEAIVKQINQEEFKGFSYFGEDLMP

T2: PKC-ζ (endogenous, human cell extracts) (human, UniProt Q05513 1-592)
T2 construct: also called PKC-zeta
T2 sequence (looked up): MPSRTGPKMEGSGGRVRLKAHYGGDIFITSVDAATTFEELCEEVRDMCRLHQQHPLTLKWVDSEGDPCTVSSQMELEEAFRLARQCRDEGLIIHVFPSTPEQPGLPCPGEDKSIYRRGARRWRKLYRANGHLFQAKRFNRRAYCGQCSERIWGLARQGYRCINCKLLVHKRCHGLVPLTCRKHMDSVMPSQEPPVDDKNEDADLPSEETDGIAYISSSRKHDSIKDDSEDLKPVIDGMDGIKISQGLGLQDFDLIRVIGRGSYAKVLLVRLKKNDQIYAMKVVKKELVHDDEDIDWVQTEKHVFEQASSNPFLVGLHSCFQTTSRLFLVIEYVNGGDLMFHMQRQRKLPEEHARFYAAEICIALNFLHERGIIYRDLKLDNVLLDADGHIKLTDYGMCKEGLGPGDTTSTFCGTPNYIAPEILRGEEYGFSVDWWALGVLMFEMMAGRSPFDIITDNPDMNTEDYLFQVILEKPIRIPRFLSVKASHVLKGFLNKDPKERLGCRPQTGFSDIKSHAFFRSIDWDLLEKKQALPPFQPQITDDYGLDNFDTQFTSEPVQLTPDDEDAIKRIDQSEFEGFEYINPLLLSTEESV

T3: PKC-ε (purified isoform) (Homo sapiens (Human), UniProt Q02156 1-737)
T3 construct: also called PKC-epsilon; PKCepsilon
T3 sequence: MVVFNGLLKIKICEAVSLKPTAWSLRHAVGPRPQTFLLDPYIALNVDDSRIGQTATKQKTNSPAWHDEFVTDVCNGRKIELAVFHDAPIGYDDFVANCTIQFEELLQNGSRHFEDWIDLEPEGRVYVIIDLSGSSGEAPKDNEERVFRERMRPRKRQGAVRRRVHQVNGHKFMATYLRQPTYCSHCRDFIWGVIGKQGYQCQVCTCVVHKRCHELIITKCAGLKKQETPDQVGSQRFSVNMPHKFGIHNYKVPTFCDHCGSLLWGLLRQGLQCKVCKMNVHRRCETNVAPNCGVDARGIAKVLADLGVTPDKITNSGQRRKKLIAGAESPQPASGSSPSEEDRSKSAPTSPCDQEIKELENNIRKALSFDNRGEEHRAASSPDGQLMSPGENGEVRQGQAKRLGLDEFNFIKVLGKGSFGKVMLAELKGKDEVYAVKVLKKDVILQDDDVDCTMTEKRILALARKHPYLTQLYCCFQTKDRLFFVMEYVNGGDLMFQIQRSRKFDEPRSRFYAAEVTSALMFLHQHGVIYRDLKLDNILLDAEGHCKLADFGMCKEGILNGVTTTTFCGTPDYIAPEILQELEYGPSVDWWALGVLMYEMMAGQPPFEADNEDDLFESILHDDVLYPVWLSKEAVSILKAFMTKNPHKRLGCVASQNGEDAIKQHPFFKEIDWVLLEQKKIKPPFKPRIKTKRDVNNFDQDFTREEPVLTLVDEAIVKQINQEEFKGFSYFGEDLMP


Key:
[1] = molecular target: T1, PKC-ε (endogenous, human cell extracts); test: Protocol B blot competition, IMR-32 extract, competitor anti-PKC-ε Ab, Band 2; PRE 20 µg
Description: The ability of the peptides PRE 2 and PRE 3 (see Table 3) to interfere with the binding of a PKC-α-specific polyclonal antibody (Santa Cruz Biotechnology, Inc.) to PKC-α was determined using a modified version of the protocol outlined above in which the test peptide was added directly to the cell extract prior to electrophoresis at a concentration of either 5× or 15× the concentration of the protein applied to each well of the gel for the Western blots (20 μg).
Peptides PRE 2, PRE 3 and PRE 4 (see Table 3) were tested for their ability to interfere with the binding of isoform-specific polyclonal antibodies (Santa Cruz Biotechnology, Inc.) to PKC-ε using the general protocol described in Example 3. Two bands, representing alternate splicing variants of PKC-ε, were identified on the Western blot using this anti-PKC-ε antibody.

[2] = molecular target: T4, PKC-βII (purified isoform) (Homo sapiens (Human), UniProt P05771 2-621); test: summary grade, purified isoform ELISA
T4 construct: also called PKC-beta II
T4 sequence (P05771 other isoform, or with tags, fused parts or gaps limits assumed): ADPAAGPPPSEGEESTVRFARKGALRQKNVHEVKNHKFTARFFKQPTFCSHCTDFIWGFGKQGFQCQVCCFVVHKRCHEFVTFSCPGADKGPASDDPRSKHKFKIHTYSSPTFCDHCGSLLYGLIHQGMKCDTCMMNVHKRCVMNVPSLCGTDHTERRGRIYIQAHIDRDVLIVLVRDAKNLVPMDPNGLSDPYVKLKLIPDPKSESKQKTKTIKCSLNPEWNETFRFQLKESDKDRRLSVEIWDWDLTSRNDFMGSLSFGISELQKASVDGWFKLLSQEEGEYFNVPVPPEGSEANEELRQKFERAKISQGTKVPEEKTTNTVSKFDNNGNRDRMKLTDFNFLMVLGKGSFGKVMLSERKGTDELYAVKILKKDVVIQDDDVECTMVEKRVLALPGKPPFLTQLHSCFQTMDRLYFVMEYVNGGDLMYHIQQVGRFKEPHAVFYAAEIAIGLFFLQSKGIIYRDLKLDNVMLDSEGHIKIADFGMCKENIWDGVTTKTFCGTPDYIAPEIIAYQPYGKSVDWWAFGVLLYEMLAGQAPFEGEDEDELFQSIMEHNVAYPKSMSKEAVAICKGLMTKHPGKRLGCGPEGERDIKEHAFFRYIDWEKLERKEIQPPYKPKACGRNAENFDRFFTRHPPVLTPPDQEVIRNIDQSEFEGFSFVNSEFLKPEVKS

[3] = molecular target: T2, PKC-ζ (endogenous, human cell extracts); test: Western-blot competition on cell extracts against the anti-PKC-ζ primary antibody; band densitometry
Description: Binding efficiency and specificity of the peptides PRE 2, 3, 4, 5, 6, 7, 8, 9, 10, 11, 12 and 13 (see Table 3) was also tested using cytoplasmic extracts from different cell lines expressing appropriate PKC isoforms as described for Example 1. Briefly, the protein cytoplasmic extracts were separated by electrophoresis and transferred onto nitrocellulose membranes by standard Western blotting procedures. The bands on the Western blots were detected with matching primary antibodies and alkaline phosphatase conjugated secondary antibody. The bands were then scanned and the relative density measurements obtained.
This procedure to assess the binding characteristics of the PREs is based on competition binding of the PRE with the primary anti-isoform PKC specific antibodies. The lower the measured band density, the greater the binding of the PRE to the PKC isoform. The PREs were added at 10 and 20 times (10×, 20×) the primary antibody concentration, according to classical competition between antigenic peptide and primary antibody. The following cell lines (obtained from the ATCC) were used: H661—NCI human lung carcinoma NSCLC; MDAMB231—human highly invasive breast cancer cell line from pleural effusion; LS180—human colon adenocarcinoma; LnCAP—human prostate adenocarcinoma; CCD16Lu—human lung fibroblasts; Du145—human prostate carcinoma brain metastasis, and T24—human bladder carcinoma.

[4] = molecular target: T5, PKC-βI (purified isoform) (Homo sapiens (Human), UniProt P05771 2-671); test: summary grade, purified isoform ELISA
T5 construct: also called PKC-beta I
T5 sequence (P05771 2-671 limits assumed): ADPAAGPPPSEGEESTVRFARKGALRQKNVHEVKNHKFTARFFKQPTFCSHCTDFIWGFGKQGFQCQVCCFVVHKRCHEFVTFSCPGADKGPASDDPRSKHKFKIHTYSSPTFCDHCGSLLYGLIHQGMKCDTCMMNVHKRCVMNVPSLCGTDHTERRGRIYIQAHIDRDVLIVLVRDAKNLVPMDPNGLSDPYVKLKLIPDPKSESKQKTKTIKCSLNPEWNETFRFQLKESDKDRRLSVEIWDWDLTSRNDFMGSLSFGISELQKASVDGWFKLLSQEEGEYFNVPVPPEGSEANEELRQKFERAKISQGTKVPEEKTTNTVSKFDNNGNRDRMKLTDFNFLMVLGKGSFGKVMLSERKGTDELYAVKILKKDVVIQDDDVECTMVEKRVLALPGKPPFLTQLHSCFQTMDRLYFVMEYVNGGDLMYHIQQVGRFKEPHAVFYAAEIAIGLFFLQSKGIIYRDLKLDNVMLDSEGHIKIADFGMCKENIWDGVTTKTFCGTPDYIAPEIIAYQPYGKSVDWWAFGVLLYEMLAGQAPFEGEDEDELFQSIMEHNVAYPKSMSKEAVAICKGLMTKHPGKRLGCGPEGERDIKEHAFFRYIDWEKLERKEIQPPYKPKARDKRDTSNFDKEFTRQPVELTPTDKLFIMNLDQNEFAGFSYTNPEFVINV

PKC-ε (purified isoform) = molecular target: T3, PKC-ε (purified isoform); test: summary grade, purified isoform ELISA

Binder	band intensity [1]	inhibition (%) [1]	relative intensity (%) [1]	binding result [2]	binding result [3]	binding result [4]	binding result (PKC-ε (purified isoform))
Ac-KDAQNLIGISI-NH2 (Synthetic peptide; also called peptide PRE 4) [PRE 4]	153	46.6%	53.3%	–	–	–	–
Ac-KDANQLIGISI-NH2 (Synthetic peptide; also called peptide PRE 6) [PRE 6]	–	–	–	no binding (tested: 200 µM)	no binding (tested: 20X the primary antibody concentration)	–	–
Ac-AKGIQEVKGGDAQNLIGISI-NH2 (Synthetic peptide; also called peptide PRE 3) [PRE 3]	0	100%	0%	–	–	–	–
Ac-KDAQNLI-NH2 (Synthetic peptide; also called peptide PRE 12; Ac-KDAQNLI-NH2) [PRE 12]	–	–	–	–	–	no binding (tested: 200 µM)	no binding (tested: 200 µM)
Ac-RDAQNLI-NH2 (Synthetic peptide; also called peptide PRE 13; Ac-RDAQNLI-NH2) [PRE 13]	–	–	–	no binding (tested: 200 µM)	no binding (tested: 20X the primary antibody concentration)	no binding (tested: 200 µM)	no binding (tested: 200 µM)
